Measured values as given in patent publication US20120251547A1 (Amgen, published 2012).
Numbering of substitutions follows the chain as printed.

B1: AMH19/AML19 (antibody, IgG2, V domains shown)
VH: QVQLVQSGAEVKKPGASVKVSCKASGYTLTSYGISWVRQAPGQGLEWMGWISAYSGNTKYAQKFQGRVTMTTDTSTSTAYMELRSLRSDDTAVYYCARRQLALDYWGQGTLVTVSS
VL: EIVMTQSPATLSVSPGERATLSCRASQSISSNLAWYQQKPGQAPRLLIYGASTRATGIPARFSDNGSGTEFTLTISSLQSEDFAVYFCQQYDTWPLTFGGGTKVEIK
B2: AMH10/AML10 (antibody, IgG2, V domains shown)
VH: QVQLQESGPGLVKPSQTLSLTCTVSGGSISSGGYYWSWIRQHPGKGLEWIGYIYFSGSAYYNPSLKSRVAISVDTSKNQFSLKLSSVTAADTAVYYCAREYYDSSGYPDAFDIWGQGTMVTVSS
VL: DIQMTQSPSSVSASVGDRVTITCRASQGIRSWLAWYQQKPGKAPKLLIFAASSLQSGVPSRFSGSGSGTEFTLTISSLQPEDFATYYCQQANNFPRTFGQGTKVEIK
notes: human mAb from IgG2 XenoMouse mice; also called AM-10; antibody F
B3: AMH11/AML11 (antibody, IgG2, V domains shown)
VH: QVQLVESGGGVVQPGRSLRLSCATSGITFSSYGMHWVRQAPGKGLEWVAVIWYDGSNKYYADSVKGRFTISRDNSKNTLYLQMNSLRAEDTAVYYCARDTKDYWGQGTLVTVSS
VL: EIVMTQSPATLSVSPGERATLSCRASQSVSSNLAWYQQKPGQAPRLLIYGASTRAAGIPARFSGGGSGTAFTLTISNLQSEDFAVYYCQHYINWPKWTFGQGTKVDIK
notes: human mAb from IgG2 XenoMouse mice; also called AM-11; antibody A
B4: AMH4/AML4 (antibody, IgG2, V domains shown)
VH: B3 VH with T24A, T28N, Y59H, K101G, D102V
VL: not shown
notes: human mAb from IgG2 XenoMouse mice; also called AM-4; antibody B
B5: AMH7/AML7 (antibody, IgG2, V domains shown)
VH: QVQLVQSGAEVKKPGASVKVSCKASGYTLTRYGISWVRQAPGQGLEWMGWISAYNGNTNYAQKLQGRVTMTTDTSTSTAYMELRSLRSDDTAVYYCARRDYDILTGYYNGFDPWGQGTLVTVSS
VL: DIQMTQSPSSLSASVGDRVTITCRASQGIRNDLGWYQQKPGKAPKRLIYAASSLQSGVPSRFSGSGSGTEFTLTISSLQPEDFATYYCLQHKSYPLTFGGGTKVEIK
notes: human mAb from IgG2 XenoMouse mice; also called AM-7; antibody D
B6: AMH6/AML6 (antibody, IgG2, V domains shown)
VH: B5 VH
VL: B5 VL
notes: human mAb from IgG2 XenoMouse mice; also called AM-6; antibody E
B7: AMH8/AML8 (antibody, IgG2, V domains shown)
VH: B5 VH with Y27N, L29F, R31G, K63N
VL: B5 VL
notes: human mAb from IgG2 XenoMouse mice; also called AM-8; antibody C
B8: AMH22/AML22 (antibody, IgG2, V domains shown)
VH: B1 VH with L29F, S31R, K59N, F64L, A102Y, L103F
VL: EIVMTQSPATLSVSPGERVTLSCRASQSVSSNLAWFQQKPGQAPRPLIYDASTRAAGIPARFSGSGSGTDFTLTISSLQSEDFAVYYCQQYDNWPLTFGGGTKVEIK
notes: human mAb from IgG2 XenoMouse mice; also called AM-22; antibody I
B9: AMH1/AML1 (antibody, IgG2, V domains shown)
VH: QVQLQESGPGLVKPSETLSLTCTVSGGSISNYYWNWIRQSPGKGLEWIGDIYYSGSTNYNPSLKSRVTISVDTSKNQFSLKLSSVTTADTAVYYCARDGELANYYGSGSYQFYYYYGMDVWGQGTTVTVSS
VL: B5 VL with Q3L, K92N, Y94N, L96F, G100P, E105D
notes: human mAb from IgG2 XenoMouse mice; also called AM-1; antibody H
B10: AMH5/AML5 (antibody, IgG2, V domains shown)
VH: QVQLQESGPGLVKPSETLPLTCTVSGGSIRSYYWSWIRQPAGKGLEWIGRIYRSGNTIYNPSLKSRVTMSIDTSKNQFSLTLSSVTAADTAVYYCARENYSESSGLYYYYGMDVWGQGTTVTVSS
VL: B5 VL with L54F, E70G, K92N, L96P, G100Q
notes: human mAb from IgG2 XenoMouse mice; tested only as part of a non-clonal hybridoma supernatant; also called AM-5

molecular target: T1, human IL-17RA, full-length, on cells (human, UniProt Q96F46 33-866); test: cell-based or functional assay

IL-17A/HFF bioassay IC50, subclone 10	IL-17A/HFF bioassay IC50, subclone 11	IL-17A/HFF bioassay IC50, subclone 12	Binder
0.22 nM	1.1 nM	0.5 nM	B1

molecular target: T1, human IL-17RA, full-length, on cells; test: cell-based or functional assay; remark: another data set of the same source

IL-17A/HFF IC50	IL-17A/lung fibroblast IC50	IL-17F/HFF IC50	Binder
0.2 nM	0.22 nM	0.087 nM	B1

molecular target: T2, huIL-17RA-FLAG-polyHis (human, UniProt Q96F46 33-320); test: binning; IL-17RA held by bead mAb A
T2 construct: also called IL-17RA-FLAG-pHis; wild-type IL-17RA
Protocol: (§1) The method employed the Bio-Plex Workstation and software (BioRad, Hercules, Calif.), as well as reagents from Luminex® Corp. (Austin, Tex.). […] The mouse-anti-human IgG coating was evaluated and the beads quantified by FACS. Each bead code was separately incubated with 10 ul of anti-IL-17RA antibody for 1 hour at room temperature and then washed. The beads were pooled and then dispensed to a 96-well filter plate (Millipore, Billerica, Mass., product #MSBVN1250). […] The PE-tagged monovalent antibody will detect the presence of the second mAb added to the well, but not the first mAb captured by the monovalent mouse-anti-human IgG antibody. Beads were resuspended in 120u1 PBSAT and at least 100 events/bead code were collected on the Bio-Plex workstation as per the manufacturer's recommended protocol.

normalized MFI	Binder
114	B2
-220	B3
-326	B4
-233	B5
-70.5	B6
-178	B7

molecular target: T2, huIL-17RA-FLAG-polyHis; test: binning; IL-17RA held by bead mAb B
Protocol: as §1

normalized MFI	Binder
545	B2
1200	B3
453	B4
684	B5
447	B6
816	B7

molecular target: T2, huIL-17RA-FLAG-polyHis; test: binning; IL-17RA held by bead mAb C
Protocol: as §1

normalized MFI	Binder
253	B2
330	B3
150	B4
217	B5
173	B6
260	B7

molecular target: T2, huIL-17RA-FLAG-polyHis; test: binning; IL-17RA held by bead mAb D
Protocol: as §1

normalized MFI	Binder
179	B2
337	B3
213	B4
207	B5
168	B6
264	B7

molecular target: T2, huIL-17RA-FLAG-polyHis; test: binning; IL-17RA held by bead mAb E
Protocol: as §1

normalized MFI	Binder
175	B2
300	B3
182	B4
192	B5
130	B6
163	B7

molecular target: T2, huIL-17RA-FLAG-polyHis; test: binning; IL-17RA held by bead mAb F
Protocol: as §1

normalized MFI	Binder
187	B2
345	B3
173	B4
269	B5
152	B6
239	B7

molecular target: T2, huIL-17RA-FLAG-polyHis; test: binning; IL-17RA held by bead mAb H
Protocol: as §1

normalized MFI	Binder
3970	B2
8640	B3
6790	B4
3180	B5
2540	B6
2950	B7

molecular target: T2, huIL-17RA-FLAG-polyHis; test: binning; IL-17RA held by bead mAb M
Protocol: (§2) The method employed the Bio-Plex Workstation and software (BioRad, Hercules, Calif.), as well as reagents from Luminex® Corp. (Austin, Tex.). The manufacturers' basic protocols were followed except where noted below (see www.bio-rad.com and www.luminexcorp.com for details). […] The mouse-anti-human IgG coating was evaluated and the beads quantified by FACS. Each bead code was separately incubated with 10 ul of anti-IL-17RA antibody for 1 hour at room temperature and then washed. The beads were pooled and then dispensed to a 96-well filter plate (Millipore, Billerica, Mass., product #MSBVN1250). […] The PE-tagged monovalent antibody will detect the presence of the second mAb added to the well, but not the first mAb captured by the monovalent mouse-anti-human IgG antibody. Beads were resuspended in 120u1 PBSAT and at least 100 events/bead code were collected on the Bio-Plex workstation as per the manufacturer's recommended protocol.

normalized MFI	Binder
1020	B2
1860	B3
1300	B4
2980	B5
1770	B6
2880	B7

molecular target: T2, huIL-17RA-FLAG-polyHis; test: binning; IL-17RA held by bead mAb P
Protocol: as §1

normalized MFI	Binder
1720	B2
6590	B3
5020	B4
5640	B5
3530	B6
5960	B7

molecular target: T2, huIL-17RA-FLAG-polyHis; test: binning; IL-17RA held by bead mAb G
Protocol: as §1

normalized MFI	Binder
342	B2
454	B3
235	B4
318	B5
334	B6
346	B7

molecular target: T2, huIL-17RA-FLAG-polyHis; test: binning; IL-17RA held by bead mAb I
Protocol: as §1

normalized MFI	Binder
3110	B2
5300	B3
3710	B4
6650	B5
4330	B6
6720	B7

molecular target: T2, huIL-17RA-FLAG-polyHis; test: binning; IL-17RA held by bead mAb J
Protocol: as §2

normalized MFI	Binder
2120	B2
2320	B3
1400	B4
3640	B5
2420	B6
3590	B7

molecular target: T2, huIL-17RA-FLAG-polyHis; test: binning; IL-17RA held by bead mAb K
Protocol: as §1

normalized MFI	Binder
4110	B2
7210	B3
4970	B4
8680	B5
5600	B6
8220	B7

molecular target: T2, huIL-17RA-FLAG-polyHis; test: binning; IL-17RA held by bead mAb L
Protocol: as §1

normalized MFI	Binder
1720	B2
3020	B3
1980	B4
4260	B5
2660	B6
3540	B7

molecular target: T2, huIL-17RA-FLAG-polyHis; test: binning; IL-17RA held by bead mAb N
Protocol: as §2

normalized MFI	Binder
1510	B2
2650	B3
1950	B4
3840	B5
2410	B6
3630	B7

molecular target: T2, huIL-17RA-FLAG-polyHis; test: binning; IL-17RA held by bead mAb O
Protocol: as §1

normalized MFI	Binder
2630	B2
3800	B3
2640	B4
5540	B5
3310	B6
5520	B7

molecular target: T2, huIL-17RA-FLAG-polyHis; test: binning; IL-17RA held by bead mAb Q
Protocol: as §1

normalized MFI	Binder
1650	B2
9650	B3
8280	B4
4690	B5
2390	B6
5500	B7

molecular target: T2, huIL-17RA-FLAG-polyHis; test: binning; IL-17RA held by bead mAb R
Protocol: as §1

normalized MFI	Binder
1120	B2
7060	B3
5880	B4
3550	B5
1660	B6
3950	B7

molecular target: T3, cynomolgus IL-17RA, on cells (cynomolgus); test: FACS competition: non-clonal supernatant inhibiting biotin-huIL-17A (competitor) binding to cyno IL-17RA+ CHO cells
T3 construct: whole, on cells; also called CHO-cynoIL-17RA; cyno IL-17RA+ CHO cells

MFI	Binder
18	B8
9	B3
11	B9
9	B10
